B1: ROS-GC1 (rod outer segment guanylate cyclase type 1), full-length recombinant (Bos taurus; A1013R) (protein)
chain: AVFTVGVLGPWACDPIFARARPDLAARLAASRLNHAAALEGGPRFEVALLPEPCRTPGSLGAVSSALTRVSGLVGPVNPAACRPAELLAQEAGVALVPWGCPGTRAAGTTAPVVTPAADALYALLRAFRWAHVALVTAPQDLWVEAGHALSTALRARGLPVALVTSMEPSDLSGAREALRRVQDGPRVRAVIMVMHSVLLGGEEQRCLLEAAEELGLADGSLVFLPFDTLHYALSPGPDALAVLANSSQLRKAHDAVLTLTRHCPLGGSVRDSLRRAQEHRELPLDLNLQQVSPLFGTIYDSVFLLAGGVARARVAAGGGWVSGAAVARHIRDARVPGFCGALGGAEEPSFVLLDTDATGDQLFATYVLDPTQGFFHSAGTPVHFPKGGRGPGPDPSCWFDPDTICNGGVEPSVVFIGFLLVVGMGLAGAFLAHYCRHRLLHIQMVSGPNKIILTLDDITFLHPHGGNSRKVAQGSRTSLAARSISDVRSIHSQLPDYTNIGLYEGDWVWLKKFPGDRHIAIRPATKMAFSKIRELRHENVALYLGLFLAGGAGGPAAPGEGVLAVVSEHCARGSLQDLLAQRDIKLDWMFKSSLLLDLIKGIRYLHHRGVAHGRLKSRNCVVDGRFVLKVTDHGHGRLLEAQRVLPEPPSAEDQLWTAPELLRDPVLERRGTLAGDVFSLGIIMQEVVCRSAPYAMLELTPEEVVKRVQSPPPLCRPSVSIDQAPMECIQLMKQCWAEQPELRPSMDRTFELFKSINKGRKMNIIDSMLRMLEQYSSNLEDLIRERTEELELEKQKTDRLLTQMLPPSVAEALKMGTPVEPEYFEEVTLYFSDIVGFTTISAMSEPIEVVDLLNDLYTLFDAIIGSHDVYKVETIGDAYMVASGLPQRNGHRHAAEIANMALDILSAVGTFRMRHMPEVPVRIRIGLHSGPCVAGVVGLTMPRYCLFGDTVNTASRMESTGLPYRIHVNRSTVQILSALNEGFLTEVRGRTELKGKGAEETYWLVGRRGFNKPIPKPPDLQPGASNHGISLHEIPPDRRQKLEKARPGQFSGK
notes: full-length wild-type cDNA expressed in COS-7 cells; membrane fraction assayed; homodimer
B2: ROS-GC1 (rod outer segment guanylate cyclase type 1), full-length recombinant (Bos taurus; A1013R/D890A) (protein)
chain: AVFTVGVLGPWACDPIFARARPDLAARLAASRLNHAAALEGGPRFEVALLPEPCRTPGSLGAVSSALTRVSGLVGPVNPAACRPAELLAQEAGVALVPWGCPGTRAAGTTAPVVTPAADALYALLRAFRWAHVALVTAPQDLWVEAGHALSTALRARGLPVALVTSMEPSDLSGAREALRRVQDGPRVRAVIMVMHSVLLGGEEQRCLLEAAEELGLADGSLVFLPFDTLHYALSPGPDALAVLANSSQLRKAHDAVLTLTRHCPLGGSVRDSLRRAQEHRELPLDLNLQQVSPLFGTIYDSVFLLAGGVARARVAAGGGWVSGAAVARHIRDARVPGFCGALGGAEEPSFVLLDTDATGDQLFATYVLDPTQGFFHSAGTPVHFPKGGRGPGPDPSCWFDPDTICNGGVEPSVVFIGFLLVVGMGLAGAFLAHYCRHRLLHIQMVSGPNKIILTLDDITFLHPHGGNSRKVAQGSRTSLAARSISDVRSIHSQLPDYTNIGLYEGDWVWLKKFPGDRHIAIRPATKMAFSKIRELRHENVALYLGLFLAGGAGGPAAPGEGVLAVVSEHCARGSLQDLLAQRDIKLDWMFKSSLLLDLIKGIRYLHHRGVAHGRLKSRNCVVDGRFVLKVTDHGHGRLLEAQRVLPEPPSAEDQLWTAPELLRDPVLERRGTLAGDVFSLGIIMQEVVCRSAPYAMLELTPEEVVKRVQSPPPLCRPSVSIDQAPMECIQLMKQCWAEQPELRPSMDRTFELFKSINKGRKMNIIDSMLRMLEQYSSNLEDLIRERTEELELEKQKTDRLLTQMLPPSVAEALKMGTPVEPEYFEEVTLYFSAIVGFTTISAMSEPIEVVDLLNDLYTLFDAIIGSHDVYKVETIGDAYMVASGLPQRNGHRHAAEIANMALDILSAVGTFRMRHMPEVPVRIRIGLHSGPCVAGVVGLTMPRYCLFGDTVNTASRMESTGLPYRIHVNRSTVQILSALNEGFLTEVRGRTELKGKGAEETYWLVGRRGFNKPIPKPPDLQPGASNHGISLHEIPPDRRQKLEKARPGQFSGK
notes: as for B1
B3: ROS-GC1 (rod outer segment guanylate cyclase type 1), full-length recombinant (Bos taurus; A1013R/E930A) (protein)
chain: AVFTVGVLGPWACDPIFARARPDLAARLAASRLNHAAALEGGPRFEVALLPEPCRTPGSLGAVSSALTRVSGLVGPVNPAACRPAELLAQEAGVALVPWGCPGTRAAGTTAPVVTPAADALYALLRAFRWAHVALVTAPQDLWVEAGHALSTALRARGLPVALVTSMEPSDLSGAREALRRVQDGPRVRAVIMVMHSVLLGGEEQRCLLEAAEELGLADGSLVFLPFDTLHYALSPGPDALAVLANSSQLRKAHDAVLTLTRHCPLGGSVRDSLRRAQEHRELPLDLNLQQVSPLFGTIYDSVFLLAGGVARARVAAGGGWVSGAAVARHIRDARVPGFCGALGGAEEPSFVLLDTDATGDQLFATYVLDPTQGFFHSAGTPVHFPKGGRGPGPDPSCWFDPDTICNGGVEPSVVFIGFLLVVGMGLAGAFLAHYCRHRLLHIQMVSGPNKIILTLDDITFLHPHGGNSRKVAQGSRTSLAARSISDVRSIHSQLPDYTNIGLYEGDWVWLKKFPGDRHIAIRPATKMAFSKIRELRHENVALYLGLFLAGGAGGPAAPGEGVLAVVSEHCARGSLQDLLAQRDIKLDWMFKSSLLLDLIKGIRYLHHRGVAHGRLKSRNCVVDGRFVLKVTDHGHGRLLEAQRVLPEPPSAEDQLWTAPELLRDPVLERRGTLAGDVFSLGIIMQEVVCRSAPYAMLELTPEEVVKRVQSPPPLCRPSVSIDQAPMECIQLMKQCWAEQPELRPSMDRTFELFKSINKGRKMNIIDSMLRMLEQYSSNLEDLIRERTEELELEKQKTDRLLTQMLPPSVAEALKMGTPVEPEYFEEVTLYFSDIVGFTTISAMSEPIEVVDLLNDLYTLFDAIIGSHDVYKVATIGDAYMVASGLPQRNGHRHAAEIANMALDILSAVGTFRMRHMPEVPVRIRIGLHSGPCVAGVVGLTMPRYCLFGDTVNTASRMESTGLPYRIHVNRSTVQILSALNEGFLTEVRGRTELKGKGAEETYWLVGRRGFNKPIPKPPDLQPGASNHGISLHEIPPDRRQKLEKARPGQFSGK
notes: as for B1
B4: ROS-GC1 (rod outer segment guanylate cyclase type 1), full-length recombinant (Bos taurus; A1013R/D934A) (protein)
chain: AVFTVGVLGPWACDPIFARARPDLAARLAASRLNHAAALEGGPRFEVALLPEPCRTPGSLGAVSSALTRVSGLVGPVNPAACRPAELLAQEAGVALVPWGCPGTRAAGTTAPVVTPAADALYALLRAFRWAHVALVTAPQDLWVEAGHALSTALRARGLPVALVTSMEPSDLSGAREALRRVQDGPRVRAVIMVMHSVLLGGEEQRCLLEAAEELGLADGSLVFLPFDTLHYALSPGPDALAVLANSSQLRKAHDAVLTLTRHCPLGGSVRDSLRRAQEHRELPLDLNLQQVSPLFGTIYDSVFLLAGGVARARVAAGGGWVSGAAVARHIRDARVPGFCGALGGAEEPSFVLLDTDATGDQLFATYVLDPTQGFFHSAGTPVHFPKGGRGPGPDPSCWFDPDTICNGGVEPSVVFIGFLLVVGMGLAGAFLAHYCRHRLLHIQMVSGPNKIILTLDDITFLHPHGGNSRKVAQGSRTSLAARSISDVRSIHSQLPDYTNIGLYEGDWVWLKKFPGDRHIAIRPATKMAFSKIRELRHENVALYLGLFLAGGAGGPAAPGEGVLAVVSEHCARGSLQDLLAQRDIKLDWMFKSSLLLDLIKGIRYLHHRGVAHGRLKSRNCVVDGRFVLKVTDHGHGRLLEAQRVLPEPPSAEDQLWTAPELLRDPVLERRGTLAGDVFSLGIIMQEVVCRSAPYAMLELTPEEVVKRVQSPPPLCRPSVSIDQAPMECIQLMKQCWAEQPELRPSMDRTFELFKSINKGRKMNIIDSMLRMLEQYSSNLEDLIRERTEELELEKQKTDRLLTQMLPPSVAEALKMGTPVEPEYFEEVTLYFSDIVGFTTISAMSEPIEVVDLLNDLYTLFDAIIGSHDVYKVETIGAAYMVASGLPQRNGHRHAAEIANMALDILSAVGTFRMRHMPEVPVRIRIGLHSGPCVAGVVGLTMPRYCLFGDTVNTASRMESTGLPYRIHVNRSTVQILSALNEGFLTEVRGRTELKGKGAEETYWLVGRRGFNKPIPKPPDLQPGASNHGISLHEIPPDRRQKLEKARPGQFSGK
notes: as for B1
B5: ROS-GC1 (rod outer segment guanylate cyclase type 1), full-length recombinant (Bos taurus; A1013R/R981A) (protein)
chain: AVFTVGVLGPWACDPIFARARPDLAARLAASRLNHAAALEGGPRFEVALLPEPCRTPGSLGAVSSALTRVSGLVGPVNPAACRPAELLAQEAGVALVPWGCPGTRAAGTTAPVVTPAADALYALLRAFRWAHVALVTAPQDLWVEAGHALSTALRARGLPVALVTSMEPSDLSGAREALRRVQDGPRVRAVIMVMHSVLLGGEEQRCLLEAAEELGLADGSLVFLPFDTLHYALSPGPDALAVLANSSQLRKAHDAVLTLTRHCPLGGSVRDSLRRAQEHRELPLDLNLQQVSPLFGTIYDSVFLLAGGVARARVAAGGGWVSGAAVARHIRDARVPGFCGALGGAEEPSFVLLDTDATGDQLFATYVLDPTQGFFHSAGTPVHFPKGGRGPGPDPSCWFDPDTICNGGVEPSVVFIGFLLVVGMGLAGAFLAHYCRHRLLHIQMVSGPNKIILTLDDITFLHPHGGNSRKVAQGSRTSLAARSISDVRSIHSQLPDYTNIGLYEGDWVWLKKFPGDRHIAIRPATKMAFSKIRELRHENVALYLGLFLAGGAGGPAAPGEGVLAVVSEHCARGSLQDLLAQRDIKLDWMFKSSLLLDLIKGIRYLHHRGVAHGRLKSRNCVVDGRFVLKVTDHGHGRLLEAQRVLPEPPSAEDQLWTAPELLRDPVLERRGTLAGDVFSLGIIMQEVVCRSAPYAMLELTPEEVVKRVQSPPPLCRPSVSIDQAPMECIQLMKQCWAEQPELRPSMDRTFELFKSINKGRKMNIIDSMLRMLEQYSSNLEDLIRERTEELELEKQKTDRLLTQMLPPSVAEALKMGTPVEPEYFEEVTLYFSDIVGFTTISAMSEPIEVVDLLNDLYTLFDAIIGSHDVYKVETIGDAYMVASGLPQRNGHRHAAEIANMALDILSAVGTFRMRHMPEVPVRIAIGLHSGPCVAGVVGLTMPRYCLFGDTVNTASRMESTGLPYRIHVNRSTVQILSALNEGFLTEVRGRTELKGKGAEETYWLVGRRGFNKPIPKPPDLQPGASNHGISLHEIPPDRRQKLEKARPGQFSGK
notes: as for B1

These proteins were tested on Nc1nc2c(ncn2[C@@H]2O[C@H](COP(=O)(O)OP(=O)(O)OP(=O)(O)O)[C@@H](O)[C@H]2O)c(=O)[nH]1 (assay: cyclic GMP radioimmunoassay, COS cell membranes; Hill fit). Conditions: constant Mg2+, GTP 0-3 mM, pH 7.5, 37 °C, half-maximal concentration from Hill equation.
Assay type: biochemical, Bos taurus

Q: B1 was tested. Which Km did it give?
A: The Km was 450 ± 20 µM.

Q: Which Km does the source give for B2 here?
A: Its Km is 560 ± 30 µM.

Q: How did the Km turn out when B3 was run?
A: Its Km is 530 ± 30 µM.

Q: Which Km does the source give for B4 here?
A: Its Km is 480 ± 40 µM.

Q: For B5, which Km is on record?
A: Its Km is 520 ± 30 µM.
